Reference: article PMC4917879 (Biochemistry, 2016)
One block for each molecule: values may come before it.

Tests used:
[1] = molecular target: T1, Formate dehydrogenase from Candida boidinii (CbFDH) ([Candida] boidinii, UniProt A0A0A1EQY0); test: ITC and crystal structure of the ternary complex with azide at […] Å; assay type: binding
T1 sequence (A0A0A1EQY0 1-364): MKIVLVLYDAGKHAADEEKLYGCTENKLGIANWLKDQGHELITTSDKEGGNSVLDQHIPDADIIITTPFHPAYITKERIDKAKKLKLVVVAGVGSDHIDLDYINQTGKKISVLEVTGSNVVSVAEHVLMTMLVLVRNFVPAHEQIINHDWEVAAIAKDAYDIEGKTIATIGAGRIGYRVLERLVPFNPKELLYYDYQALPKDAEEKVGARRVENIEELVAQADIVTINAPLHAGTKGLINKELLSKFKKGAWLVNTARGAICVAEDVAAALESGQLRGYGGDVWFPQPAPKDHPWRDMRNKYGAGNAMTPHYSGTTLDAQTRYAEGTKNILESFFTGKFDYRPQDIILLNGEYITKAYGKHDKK

purified protein = substrate: O=CO; test: purified protein; assay type: biochemical, [Candida] boidinii; settings: NAD+

Kd [1]: 92 ± 4 µM
Molecule: NC(=O)c1ccc[n+]([C@@H]2O[C@H](COP(=O)([O-])OP(=O)(O)OC[C@H]3O[C@@H](n4cnc5c(N)ncnc54)[C@H](O)[C@@H]3O)[C@@H](O)[C@H]2O)c1 [NAD+]

B1: Formate dehydrogenase from Candida boidinii (CbFDH) ([Candida] boidinii) (protein)
chain: T1 sequence (A0A0A1EQY0 1-364)
kcat (purified protein): 5.6 ± 0.2 s⁻¹
kcat/Km (purified protein): 1400 ± 200 M⁻¹ s⁻¹
